T1: HTRA3, P83110
T1 sequence (P83110 354-453, limits assumed, looked up): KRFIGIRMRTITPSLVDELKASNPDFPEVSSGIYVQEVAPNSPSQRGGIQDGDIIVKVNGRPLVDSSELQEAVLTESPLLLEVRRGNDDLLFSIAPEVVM

T2: SNTA1, Q13424
T2 sequence (Q13424 82-180, limits assumed, looked up): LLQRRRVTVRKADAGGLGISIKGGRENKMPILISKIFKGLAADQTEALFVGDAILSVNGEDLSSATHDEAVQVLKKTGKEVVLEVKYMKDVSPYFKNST

T3: LIN7C, Q9NUP9
T3 sequence (Q9NUP9 88-185, limits assumed, looked up): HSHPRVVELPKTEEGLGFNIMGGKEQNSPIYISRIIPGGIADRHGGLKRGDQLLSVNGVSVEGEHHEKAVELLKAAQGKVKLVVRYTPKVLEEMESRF

T4: ARHGEF11, O15085
T4 sequence (O15085 42-136, limits assumed, looked up): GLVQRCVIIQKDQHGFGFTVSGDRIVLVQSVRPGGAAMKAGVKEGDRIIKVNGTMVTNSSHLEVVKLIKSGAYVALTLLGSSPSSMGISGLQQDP

T5: TX1BP3, O14907
T5 sequence (O14907 10-122, limits assumed, looked up): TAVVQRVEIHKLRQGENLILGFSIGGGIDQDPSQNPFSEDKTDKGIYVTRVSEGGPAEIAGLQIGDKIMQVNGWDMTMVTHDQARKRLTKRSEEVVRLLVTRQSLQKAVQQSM

T6: DFNB31_2, Q9P202
T6 sequence (Q9P202 274-371, limits assumed, looked up): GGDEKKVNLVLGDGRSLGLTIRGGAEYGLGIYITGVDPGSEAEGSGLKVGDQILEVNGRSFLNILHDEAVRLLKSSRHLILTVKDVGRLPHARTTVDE

T7: DLG3_1, Q92796
T7 sequence (Q92796 125-227, limits assumed, looked up): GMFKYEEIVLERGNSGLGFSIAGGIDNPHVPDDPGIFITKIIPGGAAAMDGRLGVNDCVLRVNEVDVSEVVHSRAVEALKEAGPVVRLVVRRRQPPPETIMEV

T8: GRIP1_7, Q9Y3R0
T8 sequence (Q9Y3R0 999-1096, limits assumed, looked up): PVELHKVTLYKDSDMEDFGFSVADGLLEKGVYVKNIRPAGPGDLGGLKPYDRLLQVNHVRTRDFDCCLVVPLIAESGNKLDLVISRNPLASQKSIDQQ

T9: PDZD2_2, O15018
T9 sequence (O15018 329-429, limits assumed, looked up): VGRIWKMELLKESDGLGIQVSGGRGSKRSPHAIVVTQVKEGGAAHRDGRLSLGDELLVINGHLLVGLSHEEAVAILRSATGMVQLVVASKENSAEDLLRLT

T10: LNX2_3, Q8N448
T10 sequence (Q8N448 463-564, limits assumed, looked up): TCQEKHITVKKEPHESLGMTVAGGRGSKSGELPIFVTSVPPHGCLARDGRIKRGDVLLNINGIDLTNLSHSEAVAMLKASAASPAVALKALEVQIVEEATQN

T11: MPDZ_5, O75970
T11 sequence (O75970 695-796, limits assumed, looked up): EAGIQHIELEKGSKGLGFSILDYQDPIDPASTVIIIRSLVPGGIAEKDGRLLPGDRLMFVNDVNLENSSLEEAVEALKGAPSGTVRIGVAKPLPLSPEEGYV

T12: PARD3B_1, Q8TEW8
T12 sequence (Q8TEW8 196-299, limits assumed, looked up): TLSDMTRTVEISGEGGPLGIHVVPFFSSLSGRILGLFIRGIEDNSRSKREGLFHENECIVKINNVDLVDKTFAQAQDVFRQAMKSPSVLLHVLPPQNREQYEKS


Legend:
Assay in all cases: holdup assay
Set-up in all cases: key: below the threshold = too weak to quantify, mostly under pKd 3.1 to 4
Details in all cases: plain residues with an end cap or a label only (N-terminal biotin on a linker: ado-ado)
Inadl_1, Q8NI35 = target: Inadl_1, Q8NI35
HTRA3, P83110 = target: T1, HTRA3, P83110
SNTA1, Q13424 = target: T2, SNTA1, Q13424
LIN7C, Q9NUP9 = target: T3, LIN7C, Q9NUP9
LAP2, Q96RT1 = target: LAP2, Q96RT1
GORASP2, Q9H8Y8 = target: GORASP2, Q9H8Y8
ARHGEF11, O15085 = target: T4, ARHGEF11, O15085
TX1BP3, O14907 = target: T5, TX1BP3, O14907
Inadl_5, Q8NI35 = target: Inadl_5, Q8NI35
Inadl_3, Q8NI35 = target: Inadl_3, Q8NI35
DFNB31_2, Q9P202 = target: T6, DFNB31_2, Q9P202
SCRIB_2, Q14160 = target: SCRIB_2, Q14160
NHERF2_2, Q15599 = target: NHERF2_2, Q15599
GRID2IP_2, A4D2P6 = target: GRID2IP_2, A4D2P6
TJP1_2, Q07157 = target: TJP1_2, Q07157
DLG3_1, Q92796 = target: T7, DLG3_1, Q92796
GRIP1_7, Q9Y3R0 = target: T8, GRIP1_7, Q9Y3R0
PDZD2_2, O15018 = target: T9, PDZD2_2, O15018
GOPC, Q9HD26 = target: GOPC, Q9HD26
LNX2_3, Q8N448 = target: T10, LNX2_3, Q8N448
FRMPD4, Q14CM0 = target: FRMPD4, Q14CM0
FRMPD2_2, Q68DX3 = target: FRMPD2_2, Q68DX3
MPDZ_5, O75970 = target: T11, MPDZ_5, O75970
PARD3B_1, Q8TEW8 = target: T12, PARD3B_1, Q8TEW8

Sequence of SCRIB_2, Q14160 (Q14160 857-960): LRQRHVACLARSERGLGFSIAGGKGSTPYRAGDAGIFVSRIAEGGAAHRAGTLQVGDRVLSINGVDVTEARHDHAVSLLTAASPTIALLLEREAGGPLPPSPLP
Sequence of Inadl_5, Q8NI35 (Q8NI35 673-780): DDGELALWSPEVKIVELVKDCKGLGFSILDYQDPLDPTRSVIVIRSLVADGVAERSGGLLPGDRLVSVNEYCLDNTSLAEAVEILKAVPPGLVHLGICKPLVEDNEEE
Sequence of LAP2, Q96RT1 (Q96RT1 other isoform, or with tags, fused parts or gaps): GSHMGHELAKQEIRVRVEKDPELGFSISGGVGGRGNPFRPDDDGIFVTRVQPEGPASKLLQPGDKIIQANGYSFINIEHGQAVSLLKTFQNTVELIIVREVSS
Sequence of GRID2IP_2, A4D2P6 (A4D2P6 272-370): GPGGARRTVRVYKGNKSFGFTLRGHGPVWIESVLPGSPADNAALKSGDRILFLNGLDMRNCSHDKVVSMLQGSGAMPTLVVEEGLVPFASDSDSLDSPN
Sequence of TJP1_2, Q07157 (Q07157 181-274): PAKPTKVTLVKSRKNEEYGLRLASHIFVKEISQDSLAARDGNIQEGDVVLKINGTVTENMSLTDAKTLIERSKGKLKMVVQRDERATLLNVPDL
Sequence of FRMPD4, Q14CM0 (Q14CM0 67-160): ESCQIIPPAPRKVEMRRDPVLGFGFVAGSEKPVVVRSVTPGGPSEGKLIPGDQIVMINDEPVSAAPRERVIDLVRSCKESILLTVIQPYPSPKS
Sequence of Inadl_3, Q8NI35 (Q8NI35 359-469): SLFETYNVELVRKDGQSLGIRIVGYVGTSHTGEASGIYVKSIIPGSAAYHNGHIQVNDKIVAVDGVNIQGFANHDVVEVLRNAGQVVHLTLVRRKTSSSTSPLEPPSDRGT
Sequence of NHERF2_2, Q15599 (Q15599 142-238): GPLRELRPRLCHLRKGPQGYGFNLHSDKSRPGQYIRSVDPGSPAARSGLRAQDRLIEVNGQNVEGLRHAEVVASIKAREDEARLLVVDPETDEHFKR
Sequence of FRMPD2_2, Q68DX3 (Q68DX3 944-1038): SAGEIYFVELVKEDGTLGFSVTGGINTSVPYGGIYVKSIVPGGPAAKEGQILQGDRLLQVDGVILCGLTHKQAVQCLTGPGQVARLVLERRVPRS
Sequence of Inadl_1, Q8NI35 (Q8NI35 113-229): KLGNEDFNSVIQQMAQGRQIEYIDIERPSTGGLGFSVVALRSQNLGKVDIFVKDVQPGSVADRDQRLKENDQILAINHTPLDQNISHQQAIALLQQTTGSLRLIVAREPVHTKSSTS

Row | Binder | pKd (Inadl_1, Q8NI35) | pKd (HTRA3, P83110) | pKd (SNTA1, Q13424) | pKd (LIN7C, Q9NUP9) | pKd (LAP2, Q96RT1) | pKd (GORASP2, Q9H8Y8) | pKd (ARHGEF11, O15085) | pKd (TX1BP3, O14907) | pKd (Inadl_5, Q8NI35) | pKd (Inadl_3, Q8NI35) | pKd (DFNB31_2, Q9P202) | pKd (SCRIB_2, Q14160) | pKd (NHERF2_2, Q15599) | pKd (GRID2IP_2, A4D2P6) | pKd (TJP1_2, Q07157) | pKd (DLG3_1, Q92796) | pKd (GRIP1_7, Q9Y3R0) | pKd (PDZD2_2, O15018) | pKd (GOPC, Q9HD26) | pKd (LNX2_3, Q8N448) | further results
1 | HDDYFYHDEL [RCN2, Q14257] | below the threshold | below the threshold | 3.6 | below the threshold | below the threshold | below the threshold | 4 | 3.9 | below the threshold | 3.85 | below the threshold | below the threshold | 4.11 | below the threshold | below the threshold | below the threshold | below the threshold | below the threshold | 3.59 | below the threshold | pKd (FRMPD4, Q14CM0): 3.94; pKd (FRMPD2_2, Q68DX3): below the threshold; pKd (MPDZ_5, O75970): below the threshold; pKd (PARD3B_1, Q8TEW8): 3.7
2 | KKTPVSRSHL [SLC22A3, O75751] | below the threshold | below the threshold | 3.53 | below the threshold | below the threshold | below the threshold | 3.56 | 3.53 | below the threshold | below the threshold | below the threshold | below the threshold | 3.92 | 5.18 | below the threshold | below the threshold | below the threshold | below the threshold | 3.81 | below the threshold | pKd (FRMPD4, Q14CM0): 3.58; pKd (FRMPD2_2, Q68DX3): below the threshold; pKd (MPDZ_5, O75970): below the threshold; pKd (PARD3B_1, Q8TEW8): below the threshold
3 | QKNKDREYYV [NRXN3, Q9HDB5] | 3.69 | 4.84 | 3.8 | 3.59 | below the threshold | 4.67 | 4.2 | below the threshold | 4.64 | 4.14 | below the threshold | below the threshold | below the threshold | 3.52 | 3.57 | below the threshold | 4.62 | 4.56 | below the threshold | below the threshold | pKd (FRMPD4, Q14CM0): 4.4; pKd (FRMPD2_2, Q68DX3): 3.78; pKd (MPDZ_5, O75970): 4.71; pKd (PARD3B_1, Q8TEW8): 4.17
4 | LPPPESESKV [KCNJ9, Q92806] | below the threshold | below the threshold | 3.99 | below the threshold | 3.85 | below the threshold | below the threshold | below the threshold | below the threshold | below the threshold | below the threshold | below the threshold | below the threshold | below the threshold | below the threshold | below the threshold | below the threshold | 4.81 | below the threshold | below the threshold | pKd (FRMPD4, Q14CM0): below the threshold; pKd (FRMPD2_2, Q68DX3): 3.56; pKd (MPDZ_5, O75970): below the threshold; pKd (PARD3B_1, Q8TEW8): below the threshold
5 | NNMAFETTHF [SLC5A12, Q1EHB4] | below the threshold | below the threshold | below the threshold | below the threshold | below the threshold | below the threshold | 3.63 | 3.93 | below the threshold | below the threshold | below the threshold | below the threshold | 4.7 | 3.49 | below the threshold | below the threshold | below the threshold | below the threshold | below the threshold | below the threshold | pKd (FRMPD4, Q14CM0): below the threshold; pKd (FRMPD2_2, Q68DX3): below the threshold; pKd (MPDZ_5, O75970): below the threshold; pKd (PARD3B_1, Q8TEW8): 4.49
6 | KAEEKPPSKV [SCN4B, Q8IWT1] | below the threshold | below the threshold | below the threshold | below the threshold | 3.89 | below the threshold | below the threshold | below the threshold | below the threshold | below the threshold | below the threshold | below the threshold | below the threshold | below the threshold | below the threshold | below the threshold | below the threshold | 3.95 | below the threshold | below the threshold | pKd (FRMPD4, Q14CM0): below the threshold; pKd (FRMPD2_2, Q68DX3): below the threshold; pKd (MPDZ_5, O75970): below the threshold; pKd (PARD3B_1, Q8TEW8): below the threshold
